B1: TPR 5TU (parent)
chain: GGAUCUUCUCGAUCUAACAAAAAAGACAAAUCUGCCACAAAGCUUGAGAGCAUCUUCGGAUGCAGAGGCGGCAGCCUUCGGUGGCGCGAUAGCGCCAACGUUCUCAACUAUGACACGCAAAACGCGUGCUCCGUUGAAUGGAGUUUAUCAUG

Fewer inactive variants are shown than the library holds.

The text below walks through data of the RNAGym collection of RNA variant scans (doi:10.1073/pnas.2313332121).

This series covers variants of B1. The series can be described thus: polymerase ribozyme fitness, log enrichment relative to wild type (log ratio); higher = more active; in vitro selection for triplet polymerase activity. Summed up:
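To select mutant libraries of each subunit of a heterodimeric triplet polymerase ribozyme, built by PCR and transcribed, each was annealed with a biotinylated primer, partner subunit and triplets, then incubated frozen at −7 °C. Extended constructs were gel-excised, captured on streptavidin beads and amplified by RT-PCR, in one round carried out in triplicate. Illumina sequencing of input and output libraries kept genotypes with ≥10 input reads and ≥1 read per output. Fitness is the base-2 logarithm of genotype enrichment relative to wild-type enrichment, from inverse-variance-weighted replicate averages.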
As to G84A G124U, the “polymerase ribozyme fitness (log ratio)” value was -0.556. Next, C85A G94A: -1.74; C85G A122C: -1.98; G84U A97U: -1.54. G83C A89U G124U: the “polymerase ribozyme fitness (log ratio)” value was -1.35. The figure for G84U G136A G141C is -1.29; for G84A A147C it is -0.0528; for G83U C87G C99U it is at most -4.2. Next, G84A C96G: -0.627; G83C C85G A122U: at most -4.2. Next, G83A G128A: -3.83; G83A U104G A122U U134G: -3.23. As for G84U C99G C103U, the “polymerase ribozyme fitness (log ratio)” value was at most -4.2. Next, C85A G117A: -1.76; C85A G117C: -1.3; C85A G92U C131G G152C: at most -4.2. Regarding G83U C99G U145G, the “polymerase ribozyme fitness (log ratio)” value is at most -4.2. On to G84U G117A, for which the “polymerase ribozyme fitness (log ratio)” value is -2. Next, G84U C87G G88C G143C: at most -4.2; G84A U104C: -0.421. For C85A G126C U148A, the “polymerase ribozyme fitness (log ratio)” value is -4.13. Next, G84A U101A A115U A121G G124A: at most -4.2. Consider G84A A150G, for which the “polymerase ribozyme fitness (log ratio)” value is -0.63.

For the variant G84A A150C, the “polymerase ribozyme fitness (log ratio)” value is -3. For G83C G133A, the “polymerase ribozyme fitness (log ratio)” value is -3.62. Turning to G83U A98C C123U C125U C129A, the “polymerase ribozyme fitness (log ratio)” value is -3.47. Next, C85G A122U C123A: -2.3.

For G84U U134A A142C, the “polymerase ribozyme fitness (log ratio)” value was at most -4.2. Next, G84U C116U G141C: -4.04; G83U A97G A142U: -3.29. The figure for G83C G136C U146G is -3.41; for G83C C118A A142G it is -2.35.

In the case of G83C C125A U144A, the “polymerase ribozyme fitness (log ratio)” value was -2.36. On to G83U U146A, for which the “polymerase ribozyme fitness (log ratio)” value was -1.19.

For G83A G86U C118U, the “polymerase ribozyme fitness (log ratio)” value is -3.81.

For G84U A115U, the “polymerase ribozyme fitness (log ratio)” value is -3.4. Next, G84A C131G: -3.02; G84A C131A: -2.79. As for C85A G136C, the “polymerase ribozyme fitness (log ratio)” value was -4.19. Take G84A A89G G100C A115G C125U: the “polymerase ribozyme fitness (log ratio)” value is at most -4.2.

Take G83A C118A C129A: the “polymerase ribozyme fitness (log ratio)” value was -3.64. For G83C C116U A120C U135G, the “polymerase ribozyme fitness (log ratio)” value is -3.87. The figure for G83U C96A is -0.528; for G84A U127C U139G A142C it is -3.93; for G83A C105A it is -3.15.

For G83C C93U, the “polymerase ribozyme fitness (log ratio)” value was -2.49. Next, G83C C93G: at most -4.2; G83U G92C U111A: at most -4.2. Next, G83C U90C A107C C116A U127C A150C: at most -4.2.

As for C85G A142C, the “polymerase ribozyme fitness (log ratio)” value is -2.98. Next, G83U G143U: -1.68; G83A C96U C118U: -0.697. For C85A U127A, the “polymerase ribozyme fitness (log ratio)” value was -3.68. The figure for C85A U109G is -1.33.

Regarding C85A C96U A137U U144A, the “polymerase ribozyme fitness (log ratio)” value is at most -4.2.

Turning to G84U G86A C93U C123U, the “polymerase ribozyme fitness (log ratio)” value was -1.15.

Consider G84A U109G, for which the “polymerase ribozyme fitness (log ratio)” value is -1.95. Regarding G83U C93U, the “polymerase ribozyme fitness (log ratio)” value was -2.69. On to C85A C95G A115G, for which the “polymerase ribozyme fitness (log ratio)” value is -3.81. As to C85A U139C U145C, the “polymerase ribozyme fitness (log ratio)” value was at most -4.2. Next, G83U C132U: -1.33. The figure for G84A C96A A119U is -1.11. On to G84U G94A C96A, for which the “polymerase ribozyme fitness (log ratio)” value was -3.87.

For C85A A106G, the “polymerase ribozyme fitness (log ratio)” value is -2.01. On to C85A A120U, for which the “polymerase ribozyme fitness (log ratio)” value is -1.7. The figure for G84U A142G is -3.27; for G84A G133C G143U it is -3.92; for G84C A115C C116U it is -3.98.

Take C85A C96A: the “polymerase ribozyme fitness (log ratio)” value was -2.22.

For the variant G84A C118A, the “polymerase ribozyme fitness (log ratio)” value is -1.61. Turning to G83U G94U C116A C132G G140U, the “polymerase ribozyme fitness (log ratio)” value was -3.11.

As to C85A U109G C118U, the “polymerase ribozyme fitness (log ratio)” value was -1.54. Next, G83U C95G G126U: -1.85; G83A U90G G94C A110G G152U: at most -4.2. In the case of C85A G92U G117U, the “polymerase ribozyme fitness (log ratio)” value was -2.26. Next, G84U G126U: -1.45; G84U G126A: -1.87; C85A U144G: -0.777.

As to C85A U144C, the “polymerase ribozyme fitness (log ratio)” value was -0.693.

In the case of C85A U144A, the “polymerase ribozyme fitness (log ratio)” value is -0.579. In the case of G83A U151A, the “polymerase ribozyme fitness (log ratio)” value is -3.69. Next, G83U C87U: -1.25; G83A U146G: -1.33. Turning to G84A U145A, the “polymerase ribozyme fitness (log ratio)” value worked out at 0.189.
